This note sets out measurements from patent US20160185837A1, “GIP AND GLP-1 RECEPTOR DUAL-AGONISTS FOR THE TREATMENT OF DIABETES” (Medimmune Limited, priority 2013, published 2016).

What all share (experiment): cell-based or functional assay
One assay concerns the target rat GLP-1 receptor (rat) (UniProt P32301).
The target of assay [1] is mouse GLP-1 receptor (mouse) (UniProt O35659).
Assay [2] concerns the target T1, human GIP receptor (human) (UniProt P48546).
T1 sequence (looked up): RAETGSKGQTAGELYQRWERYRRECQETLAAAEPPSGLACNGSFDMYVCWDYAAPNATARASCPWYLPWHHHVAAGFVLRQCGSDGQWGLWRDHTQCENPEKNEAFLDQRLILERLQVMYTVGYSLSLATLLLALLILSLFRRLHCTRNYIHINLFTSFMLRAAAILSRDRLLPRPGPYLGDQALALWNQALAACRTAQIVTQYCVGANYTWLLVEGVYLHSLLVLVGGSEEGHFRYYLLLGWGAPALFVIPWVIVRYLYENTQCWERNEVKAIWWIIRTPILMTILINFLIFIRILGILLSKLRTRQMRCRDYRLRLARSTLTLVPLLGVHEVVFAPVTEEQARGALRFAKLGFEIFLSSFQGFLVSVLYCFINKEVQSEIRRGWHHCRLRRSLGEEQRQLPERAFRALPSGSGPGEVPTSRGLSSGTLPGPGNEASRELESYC

Assay [3] concerns the target cynomolgus monkey glucagon receptor (cynomolgus monkey).
For assay [4], the target named is cynomolgus monkey GLP-1 receptor (cynomolgus monkey) (UniProt F8V479).
cynomolgus monkey GLP-1 receptor (cynomolgus monkey), sequence (F8V479 entry or part of it): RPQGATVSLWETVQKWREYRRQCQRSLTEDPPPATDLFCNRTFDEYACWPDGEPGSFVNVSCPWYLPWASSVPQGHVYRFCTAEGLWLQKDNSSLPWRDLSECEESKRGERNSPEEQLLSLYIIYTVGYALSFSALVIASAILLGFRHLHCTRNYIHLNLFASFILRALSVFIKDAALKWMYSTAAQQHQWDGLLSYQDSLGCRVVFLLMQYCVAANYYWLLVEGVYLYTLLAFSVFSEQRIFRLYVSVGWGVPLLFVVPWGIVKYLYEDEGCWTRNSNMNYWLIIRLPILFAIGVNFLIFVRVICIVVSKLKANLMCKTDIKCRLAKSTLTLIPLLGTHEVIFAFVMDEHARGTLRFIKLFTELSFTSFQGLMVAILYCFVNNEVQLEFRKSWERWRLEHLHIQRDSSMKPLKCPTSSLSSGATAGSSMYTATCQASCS

rat GLP-1 receptor (rat), sequence (P32301 22-463): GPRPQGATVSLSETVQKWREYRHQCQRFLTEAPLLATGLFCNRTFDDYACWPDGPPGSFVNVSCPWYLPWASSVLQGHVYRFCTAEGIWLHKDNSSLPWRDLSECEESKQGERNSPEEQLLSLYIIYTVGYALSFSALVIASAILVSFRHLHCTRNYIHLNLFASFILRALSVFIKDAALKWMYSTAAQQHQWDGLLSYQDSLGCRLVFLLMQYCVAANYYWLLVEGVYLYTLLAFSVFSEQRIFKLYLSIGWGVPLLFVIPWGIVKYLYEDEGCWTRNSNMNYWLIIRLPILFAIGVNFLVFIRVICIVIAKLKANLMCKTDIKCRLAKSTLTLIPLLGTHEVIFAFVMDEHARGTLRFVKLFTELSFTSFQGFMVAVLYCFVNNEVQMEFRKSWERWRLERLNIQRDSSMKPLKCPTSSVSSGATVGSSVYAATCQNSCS
mouse GLP-1 receptor (mouse), sequence (O35659 22-463): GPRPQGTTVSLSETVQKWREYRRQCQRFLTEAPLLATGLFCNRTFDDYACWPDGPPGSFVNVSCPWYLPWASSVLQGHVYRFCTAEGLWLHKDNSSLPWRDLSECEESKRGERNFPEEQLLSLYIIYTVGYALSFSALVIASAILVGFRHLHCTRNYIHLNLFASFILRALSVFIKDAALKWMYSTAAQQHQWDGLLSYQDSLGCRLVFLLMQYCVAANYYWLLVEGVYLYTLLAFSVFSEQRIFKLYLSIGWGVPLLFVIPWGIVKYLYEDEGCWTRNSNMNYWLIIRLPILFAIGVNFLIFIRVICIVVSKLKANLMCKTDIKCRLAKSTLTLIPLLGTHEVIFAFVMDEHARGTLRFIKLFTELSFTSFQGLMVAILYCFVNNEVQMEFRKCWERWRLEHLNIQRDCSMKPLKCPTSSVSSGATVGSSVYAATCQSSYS

Consider “glucagon (from UniProt P01275 53-81) (peptide)”, for which the cAMP EC50 in the assay with rat GLP-1 receptor (rat) stood at 0.54 nM; in assay [1] it was 1.8 nM. Turning to human GIP (peptide), the cAMP EC50 in assay [2] was 0.0047 nM.

liraglutide (peptide): the results for the cAMP EC50, 4.2% cyno serum albumin in assay [3] and in assay [4] were more than 1000 nM and 0.025 nM, respectively.
